Experimental data as given in patent publication US20220259322A1.
Each block holds one binder with its values, some of them ahead of it.

How the values were obtained:
[1] = molecular target: 78-kDa glucose-regulated protein (GRP78) (UniProt P11021); assay: flow cytometry, irradiated A549 cells, % of positive cells, 4PL fit
[2] = molecular target: recombinant GRP78 full length protein (UniProt P11021); assay: Biacore, recombinant full length GRP78, scFv1171-Fc from 500 nM in two-fold dilutions
[3] = molecular target: 78-kDa glucose-regulated protein (GRP78) (UniProt P11021); assay: flow cytometry, irradiated A549 cells, gMFI minus secondary only, one site-specific binding fit
[4] = molecular target: recombinant GRP78 full length protein (UniProt P11021); assay: Biacore, recombinant full length GRP78, scFv1183-Fc from 500 nM in two-fold dilutions

Sequence of recombinant GRP78 full length protein (P11021 19-654 limits assumed): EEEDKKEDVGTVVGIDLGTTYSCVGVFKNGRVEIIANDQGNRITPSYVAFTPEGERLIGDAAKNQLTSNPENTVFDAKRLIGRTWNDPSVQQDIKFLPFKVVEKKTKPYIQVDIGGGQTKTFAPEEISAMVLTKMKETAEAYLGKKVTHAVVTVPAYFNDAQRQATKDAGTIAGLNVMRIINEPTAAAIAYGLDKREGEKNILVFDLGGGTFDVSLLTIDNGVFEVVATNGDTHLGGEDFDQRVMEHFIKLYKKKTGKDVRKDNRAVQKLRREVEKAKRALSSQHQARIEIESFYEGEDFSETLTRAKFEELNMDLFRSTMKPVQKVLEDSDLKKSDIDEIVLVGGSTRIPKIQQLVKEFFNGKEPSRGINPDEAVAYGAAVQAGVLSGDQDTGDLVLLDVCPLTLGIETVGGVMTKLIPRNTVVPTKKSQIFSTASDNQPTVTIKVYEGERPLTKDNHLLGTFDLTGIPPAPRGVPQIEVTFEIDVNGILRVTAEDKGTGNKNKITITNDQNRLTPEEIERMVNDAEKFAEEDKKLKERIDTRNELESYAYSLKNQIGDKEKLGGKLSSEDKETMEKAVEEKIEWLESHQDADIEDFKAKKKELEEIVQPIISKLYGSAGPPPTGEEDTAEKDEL
Sequence of 78-kDa glucose-regulated protein (GRP78) (P11021 19-654 limits assumed): as above

- EC50 [1]: 16.8 nM
- Kd [2]: 4.77 nM
- koff [2]: 0.00324 s⁻¹
- kon [2]: 679000 M⁻¹ s⁻¹
- Kd [3]: 18.7 nM
B1: anti-GRP78 scFv-Fc 1171 (Fc fusion, part only; not given: Linker, domain order, Fc, not shown: another chain or arm of the molecule; a dimerising Fc or GST; small tags and cut ends)
VH: QVQLVQSGAEVKKPGSSVKVSCKSSGGTFSNPVISWVRQAPGQGLEWMGGIITMFGTTYYGNSVRGRFIVSRDNSKNMLFLQMNSLRAEDTAVYYCAKDPPMFDYWGQGTLVTVS
VL: DIQLTQSPSSLSASVGDRVTITCRASQSISSYLNWYQQKPGKAPKLLIYDASNLETGVPSRFSGSGSGTDFTFTISSLQPEDIATYYCQQYDNLLALTFGGGTKVDIK

- Kd [4]: 8.4 nM
- koff [4]: 0.00793 s⁻¹
- kon [4]: 944000 M⁻¹ s⁻¹
B2: anti-GRP78 scFv-Fc 1183 (Fc fusion, part only; not given: Linker, domain order, Fc, not shown: another chain or arm of the molecule; a dimerising Fc or GST; small tags and cut ends)
VH: QMQLVQSGAEVKKPGSSVKVSCKASGGTFSSYAISWVRQAPGQGLEWMGWISAYNGNTNYAQKLQGRVTMTTDTSTSTAYMELRSLRSDDTAVYYCARDPPLRYFDWFRGSDWFDPWGQGTLVTVS
VL: NFMLTQPHSVSESPGKTVTISCTRSSGSIASNYVQWYQQRPGSSPTTVIYEDNQRPSGVPDRFSGSIDSSSNSASLTISGLKTEDEADYYCQSYDSTNGVFGGGTKLTVL
